# Assay results taken from patent US20150044666A1.
# Experiments:
# [1] = target: Recombinant HIV-1 p24 (HIV-1) (UniProt P04591); experiment: forward two-site immuno-PCR; p24 0.1 pg/mL; reporter MAb-DNA 2.5 pM
# [2] = target: Recombinant HIV-1 p24 (HIV-1) (UniProt P04591); experiment: forward two-site immuno-PCR; p24 0.1 pg/mL; reporter MAb-DNA 50 pM
# [3] = target: Recombinant HIV-1 p24 (HIV-1) (UniProt P04591); experiment: forward two-site immuno-PCR; p24 0.1 pg/mL; reporter MAb-DNA 10 pM
# [4] = target: Recombinant HIV-1 p24 (HIV-1) (UniProt P04591); experiment: forward two-site immuno-PCR, 10 pM reporter MAb-DNA, capture MAb 739P on particles; p24 at 0.01 pg/mL
# [5] = target: Recombinant HIV-1 p24 (HIV-1) (UniProt P04591); experiment: forward two-site immuno-PCR; p24 0.1 pg/mL; reporter MAb-DNA 5 pM
# [6] = target: Recombinant HIV-1 p24 (HIV-1) (UniProt P04591); experiment: forward two-site immuno-PCR; p24 0.1 pg/mL; reporter MAb-DNA 20 pM
# [7] = target: Recombinant HIV-1 p24 (HIV-1) (UniProt P04591); experiment: forward two-site immuno-PCR, 10 pM reporter MAb-DNA, capture MAb 739P on particles; p24 at 10 pg/mL
# [8] = target: Recombinant HIV-1 p24 (HIV-1) (UniProt P04591); experiment: forward two-site immuno-PCR, 10 pM reporter MAb-DNA, capture MAb 739P on particles; p24 at 0.1 pg/mL
# [9] = target: Recombinant HIV-1 p24 (HIV-1) (UniProt P04591); experiment: forward two-site immuno-PCR, 10 pM reporter MAb-DNA, capture MAb 739P on particles; p24 at 1 pg/mL
# [10] = target: Recombinant HIV-1 p24 (HIV-1) (UniProt P04591); experiment: forward two-site immuno-PCR; p24 0.1 pg/mL; reporter MAb-DNA 15 pM
# [11] = target: Recombinant HIV-1 p24 (HIV-1) (UniProt P04591); experiment: method not stated; rate and equilibrium constants listed for commercially available anti-HIV p24 antibodies
substance,measurement,setting,value
NIH AIDS Research & Reference Reagent Program HIV-1 183-H12-5C (antibody),Average ΔThreshold Cycle (ΔCp) over blank,[1],0.3 cycles
same,Average ΔThreshold Cycle (ΔCp) over blank,[2],0.9 cycles
same,Average ΔThreshold Cycle (ΔCp) over blank,[3],2.2 cycles
same,Threshold Cycle (Ct),[4],26.6 cycles
same,Average ΔThreshold Cycle (ΔCp) over blank,[5],2.6 cycles
same,Average ΔThreshold Cycle (ΔCp) over blank,[6],1.5 cycles
same,Threshold Cycle (Ct),[7],17.7 cycles
same,Threshold Cycle (Ct),[8],23.8 cycles
same,Threshold Cycle (Ct),[9],20.6 cycles
same,Average ΔThreshold Cycle (ΔCp) over blank,[10],2 cycles
same,Kd,[11],3.93 nM
same,koff,[11],5.9e-05 s⁻¹
same,kon,[11],15000 M⁻¹ s⁻¹
